T1: extracellular domain of human KLB expressed with C-terminal HA and hexahistidine tags (human, UniProt Q86Z14 1-996)
T1 construct: also called hKLB-HA-6His; hKLB-HA-6his
T1 sequence: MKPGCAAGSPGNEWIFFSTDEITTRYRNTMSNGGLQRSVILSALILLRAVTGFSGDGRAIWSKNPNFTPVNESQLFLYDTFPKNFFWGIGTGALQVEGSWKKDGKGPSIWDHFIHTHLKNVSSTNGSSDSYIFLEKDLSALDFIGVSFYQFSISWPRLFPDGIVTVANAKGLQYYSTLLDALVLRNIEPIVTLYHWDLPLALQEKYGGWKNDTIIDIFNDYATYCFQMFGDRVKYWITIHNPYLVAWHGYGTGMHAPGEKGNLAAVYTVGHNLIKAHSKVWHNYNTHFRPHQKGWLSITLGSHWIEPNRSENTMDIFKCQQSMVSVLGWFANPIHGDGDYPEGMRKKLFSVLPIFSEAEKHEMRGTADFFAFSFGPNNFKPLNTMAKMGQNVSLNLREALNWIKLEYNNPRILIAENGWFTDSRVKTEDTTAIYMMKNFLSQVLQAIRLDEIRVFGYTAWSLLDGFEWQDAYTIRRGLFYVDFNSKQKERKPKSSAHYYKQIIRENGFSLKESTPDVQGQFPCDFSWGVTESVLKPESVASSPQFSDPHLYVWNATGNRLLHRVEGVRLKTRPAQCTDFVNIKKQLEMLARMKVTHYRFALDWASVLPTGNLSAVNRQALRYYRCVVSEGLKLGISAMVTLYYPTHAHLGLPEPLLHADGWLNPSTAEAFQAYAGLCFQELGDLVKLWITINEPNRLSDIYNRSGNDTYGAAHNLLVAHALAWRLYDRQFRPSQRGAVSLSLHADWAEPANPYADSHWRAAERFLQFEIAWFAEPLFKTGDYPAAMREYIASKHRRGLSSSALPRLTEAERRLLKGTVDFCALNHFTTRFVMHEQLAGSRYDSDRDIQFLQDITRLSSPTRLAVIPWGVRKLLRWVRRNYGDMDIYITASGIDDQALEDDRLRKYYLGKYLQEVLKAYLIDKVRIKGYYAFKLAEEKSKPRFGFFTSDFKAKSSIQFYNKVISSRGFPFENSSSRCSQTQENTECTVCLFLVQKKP

T2: extracellular domain of human FGFR1c expressed with C-terminal V5 and hexahistidine tags (human, UniProt P11362 22-376)
T2 construct: also called hFGFR1c-V5-6His
T2 sequence: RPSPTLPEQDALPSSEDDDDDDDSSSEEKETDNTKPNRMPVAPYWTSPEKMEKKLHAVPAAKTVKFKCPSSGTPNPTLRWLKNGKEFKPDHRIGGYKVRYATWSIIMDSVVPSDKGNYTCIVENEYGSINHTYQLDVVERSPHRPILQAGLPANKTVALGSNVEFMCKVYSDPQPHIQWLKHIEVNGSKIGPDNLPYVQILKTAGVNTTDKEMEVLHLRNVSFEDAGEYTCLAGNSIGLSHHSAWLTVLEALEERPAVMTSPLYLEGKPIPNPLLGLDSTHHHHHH


Tests used:
[1] = molecular target: T1, extracellular domain of human KLB …; experiment: SPR, mAb captured, 25 C
Description: (§1) Equilibrium dissociation constants (KD values) for human KLB or human FGFR1c binding to purified anti-KLB/FGFR1c monoclonal antibodies were determined using a real-time surface plasmon resonance biosensor using a Biacore T-200 or 4000 instrument. The Biacore sensor surface was derivatized by amine coupling with either a polyclonal rabbit anti-mouse antibody (GE, # BR-1008-38) or with a monoclonal mouse anti-human Fc antibody (GE, # BR-1008-39) to capture anti-KLB/FGFR1c monoclonal antibodies expressed with either a mouse Fc or a human Fc, respectively. All Biacore binding studies were performed in a buffer composed of 0.01M HEPES pH 7.4, 0.15M NaCl, 3mM EDTA, 0.05% v/v Surfactant P20 (HBST running buffer). […] Association of hKLB-HA-6His or hFGFR1c-V5-6His to the captured monoclonal antibody was monitored for 3.5 to 4 minutes and the dissociation of hKLB-HA-6His or hFGFR1c-V5-6His in HBST running buffer was monitored for 8-12 minutes. All the binding kinetics experiments were performed at 25° C. or 37° C. Kinetic association (kₐ) and dissociation (kd) rate constants were determined by fitting the real-time sensorgrams to a 1:1 binding model using Scrubber 2.0c curve fitting software. Binding dissociation equilibrium constants (KD) and dissociative half-lives (t½) were calculated from the kinetic rate constants as: […]

[2] = molecular target: T2, extracellular domain of human FGFR1c …; experiment: SPR, mAb captured, 25 C
Description: as §1

[3] = molecular target: T3, human KLB and human FGFR1c co-expressed on HEK293/hKLB/hFGFR1c/SRE-luc cells (human, UniProt Q86Z14 1-1044; P11362 22-822); experiment: cell-based or functional assay
[4] = molecular target: T1, extracellular domain of human KLB …; experiment: SPR, mAb captured, 37 C
Description: as §1

[5] = molecular target: T2, extracellular domain of human FGFR1c …; experiment: SPR, mAb captured, 37 C
Description: as §1

[6] = molecular target: mouse KLB and mouse FGFR1c co-expressed on HEK293/mKLB/mFGFR1c/SRE-Luc cells (mouse); experiment: cell-based or functional assay
[7] = molecular target: T3, human KLB and human FGFR1c co-expressed …; experiment: cell-based or functional assay; remark: listed apart in the source
Target sequence in this assay (P11362 other isoform, or with tags, fused parts or gaps limits assumed): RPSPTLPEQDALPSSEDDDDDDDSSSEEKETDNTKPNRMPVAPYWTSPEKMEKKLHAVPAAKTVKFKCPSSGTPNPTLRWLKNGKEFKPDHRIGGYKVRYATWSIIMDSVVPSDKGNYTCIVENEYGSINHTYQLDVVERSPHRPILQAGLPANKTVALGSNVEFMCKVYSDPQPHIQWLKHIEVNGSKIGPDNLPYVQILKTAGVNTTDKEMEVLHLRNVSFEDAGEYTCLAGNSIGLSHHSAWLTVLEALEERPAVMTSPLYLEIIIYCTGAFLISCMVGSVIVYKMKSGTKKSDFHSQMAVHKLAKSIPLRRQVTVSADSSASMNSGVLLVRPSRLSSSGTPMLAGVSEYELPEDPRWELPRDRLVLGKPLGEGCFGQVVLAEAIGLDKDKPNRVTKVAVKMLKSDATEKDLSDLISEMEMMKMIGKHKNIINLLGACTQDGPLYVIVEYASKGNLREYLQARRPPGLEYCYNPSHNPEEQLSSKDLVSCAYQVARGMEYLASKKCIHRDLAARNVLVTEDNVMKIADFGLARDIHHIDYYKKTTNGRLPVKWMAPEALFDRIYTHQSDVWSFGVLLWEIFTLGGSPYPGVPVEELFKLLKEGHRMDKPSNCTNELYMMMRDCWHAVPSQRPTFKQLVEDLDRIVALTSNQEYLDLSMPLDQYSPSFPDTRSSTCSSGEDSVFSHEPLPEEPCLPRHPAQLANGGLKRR

| Binder | 20 nM hKLB-HA-6His Bind (RU) [1] | Kd [1] | koff [1] | kon [1] | t1/2 [1] | 180 nM hFGFR1c-V5-6His Bind (RU) [2] | binding result [2] | EC50, SRE-luc activation without ligand [3] | Maximum Activation (%) without ligand [3] | 20 nM hKLB-HA-6His Bind (RU) [4] | Kd [4] | koff [4] | kon [4] | t1/2 [4] | 180 nM hFGFR1c-V5-6His Bind (RU) [5] | Maximum Inhibition (%) of 0.8 nM mFGF21 [6] | also measured |
| --- | --- | --- | --- | --- | --- | --- | --- | --- | --- | --- | --- | --- | --- | --- | --- | --- | --- |
| H1H8897P (antibody, V domains shown, H1H Fc prefix (human Fc)) VH: QVQLVESGGGLVKPGGSLRLSCAAAGFTFSDYYMSWIRQAPGQGLEWVSYISPSGSTTYYADSVQGRFTISRDNAKSSLYLQMNSLRAEDTAVYYCARTGIQLWSVYFDYWGQGTLVTVSS VL: not shown | -0.4 RU | – | – | – | – | 0.9 RU | no binding (tested: 180 nM) | 19 nM | 1% | 1.9 RU | – | – | – | – | 0.7 RU | 50% | Maximum Activation (%) without ligand [6]: 3% |
| H2aM8091N (antibody, V domains shown, mouse IgG2 Fc (H2aM prefix); also called H2M8091N) VH: QVQLVQSGADMKKPGASVKVSCKASGYTFTTYGINWVRQAPGQGLEWMGWISAYSGITNYAQSFQGRVTMTTDTSTSTAYMELRSLRSDDTAVYYCARGGYNWATGDYFDYWGQGTLVTVSS VL: DIQMTQSPSTLSASIGDRVTITCRASQSISSWLAWYQQKPGKAPKFLIYKASSLASGVPSRFSGSGSGTEFTLTISSLQPDDFATYYCQQYDSYSPYTFGQGTKVEIK | -2 RU | – | – | – | – | -0.8 RU | – | 3.6 nM | 1% | -2.3 RU | – | – | – | – | -1.3 RU | 90% | – |
| H2aM8098N (antibody, V domains shown, mouse IgG2 Fc (H2aM prefix)) VH: QLQLQESGPGLVKPSETLSLTCTVSGGSISSSNYYWDWIRQTPEKGLEWIGSIHYSGTSYYNPSLKSRVTISVDTSKNQFSLKLRSVTAADAAVYYCARQTSVYWYFDIWGHGTLVTVST VL: EIVLTQSPGTLSLSPGEGATLSCRASQSVRNNYLAWYQQKPGQAPRLLIYGASSRAIGIPDRFSGSGSGTDFTLTISRLEPKDFVVYYCQQYGGSLFTFGPGTKVDIK | 2.7 RU | – | – | – | – | -0.9 RU | – | 23 nM | 1% | 3.9 RU | – | – | – | – | -1.4 RU | – | – |

More lines, main results first:

| 20 nM hKLB-HA-6His Bind (RU) [1] | Kd [1] | koff [1] | kon [1] | t1/2 [1] | 180 nM hFGFR1c-V5-6His Bind (RU) [2] | binding result [2] | EC50, SRE-luc activation without ligand [3] | Maximum Activation (%) without ligand [3] | 20 nM hKLB-HA-6His Bind (RU) [4] | Kd [4] | koff [4] | kon [4] | t1/2 [4] | 180 nM hFGFR1c-V5-6His Bind (RU) [5] | Maximum Inhibition (%) of 0.8 nM mFGF21 [6] | Binder | also measured |
| --- | --- | --- | --- | --- | --- | --- | --- | --- | --- | --- | --- | --- | --- | --- | --- | --- | --- |
| 92.7 RU | 0.124 nM | 0.000178 s⁻¹ | 1.44e+06 M⁻¹ s⁻¹ | 65 min | 0.3 RU | no binding (tested: 180 nM) | 0.072 nM | 7% | 101 RU | 0.32 nM | 0.000463 s⁻¹ | 1.45e+06 M⁻¹ s⁻¹ | 24.9 min | 0 RU | – | H4H8881P (antibody, V domains shown, human IgG4 Fc (H4H prefix)) VH: QVQLVQSGAEVKKPGASVKVSCKASGYTFTSYVIHWVRQAPGQRLEWMGWSNAANGDTKYSQEFQDRVTFTRDTSASTAYMELSSLRSEDMAVYYCARWNWNYGAFDIWGQGTMVTVSS VL: DIQMTQSPSSLSASVGDRVTITCQASQDINNYLHWYQQKSGKAPNLLIYDASILETGVPSRFSGSGSGTDFTFTISSLQPEDIATYYCQQYDNLPYTFGQGTKLEIK | – |
| -0.6 RU | – | – | – | – | 6.9 RU | – | – | – | -0.8 RU | – | – | – | – | 10.6 RU | – | H4H8870P (antibody, V domains shown, human IgG4 Fc (H4H prefix)) VH: EVQLVESGGGVVRPGGSLRLSCAASGFKFDVYGMSWVRQLPGKGLEWVSGISWTGGSSGYADSVKGRFTISRDNGKKSLYLQMNSLRAEDTALYYCTREEDYWGQGTLVTVSS VL: not shown | Kd [2]: 197 nM; koff [2]: 0.0432 s⁻¹; kon [2]: 219000 M⁻¹ s⁻¹; t1/2 [2]: 0.27 min; Kd [5]: 301 nM; koff [5]: 0.0795 s⁻¹; kon [5]: 264000 M⁻¹ s⁻¹; t1/2 [5]: 0.1 min; Maximum Inhibition (%) [7]: 10% |
| 28.4 RU | 1.25 nM | 0.000213 s⁻¹ | 170000 M⁻¹ s⁻¹ | 54.3 min | 0.4 RU | no binding (tested: 180 nM) | 0.41 nM | 1% | 101 RU | 0.305 nM | 0.000241 s⁻¹ | 790000 M⁻¹ s⁻¹ | 48 min | 0.8 RU | – | H4H8878P (antibody, V domains shown, human IgG4 Fc (H4H prefix)) VH: QVQLVESGGGVVQPGRSLRLSCAASGFTLNTYGMHWIRQTPGKGLEWVSLISYDETKEYYVDSVKGRFTISRDNSKNTLYLQMNSVRVEDTAVYYCAKPLTGSTDYYYGLDVWGQGTTVTVSS VL: DIQMTQSPSYVSASVGDRVIITCRASQDISSWLAWYQQKPGKAPKLLIYVTSSLESGVPSRFSGSGSGTDFTLTISGLQPEDFATYYCQQVKSFPPTFGPGTKVDIK | – |
| 68.1 RU | 0.64 nM | 0.000287 s⁻¹ | 448000 M⁻¹ s⁻¹ | 40.3 min | 0.4 RU | no binding (tested: 180 nM) | 0.054 nM | 1% | 148 RU | 0.945 nM | 0.000526 s⁻¹ | 556000 M⁻¹ s⁻¹ | 22 min | 0.1 RU | 16% | H4H8880P (antibody, V domains shown, human IgG4 Fc (H4H prefix)) VH: EVQLVESGGGVVQPGGSLRLSCAASGFTFSLYAMSWVRQAPGKGLEWVSAISGSAHGAYYADSVKGRFTISRDNSKNSLYLQMNSLRAEDTAIYYCAKDLVIAVAGTFDYWGQGTLVTVSS VL: DIQMTQSPSSLSASVGDRVTITCRASQIISTYLNWYQQKPGKAPKILIYTASSLKSGVPSRFSGSGSGTDFTLTISSLQPEDFATYYCQQTYSSPRFTFGPGTKVDIK | Maximum Activation (%) without ligand [6]: 2% |
| -0.7 RU | – | – | – | – | 0.4 RU | – | 0.18 nM | 5% | -0.9 RU | – | – | – | – | -1.4 RU | – | H4H8871P (antibody, V domains shown, human IgG4 Fc (H4H prefix)) VH: QVQLQESGPGLVKPSETLSLTCTVSGASISSYYWSWIRQPPGKGLEWIGYIYSSGIIKYNPSLKSRVTISADTSKNQFSLKLSSVTAADTAVYYCARHGIFGVMEYFQRWGQGTLVTVSS VL: DIQMTQSPSSLSASIGDRVTITCQASQDIGNFLNWYHQKPGKAPTLLIYDASNMETGVPSRFRGSGSGTYFTFIISSLQPEDVATYYCQQYDNLPLTFGGGTKVEIK | – |
